Experimental data as given in paper PMC2133042.
Several values for one entry are separate records, joined by “and”; a condition that tells them apart may be missing. Identical values can stand only once.

T1: KKFF (myc-tagged wild-type ERGIC-53) (human), P49257
T1 chain: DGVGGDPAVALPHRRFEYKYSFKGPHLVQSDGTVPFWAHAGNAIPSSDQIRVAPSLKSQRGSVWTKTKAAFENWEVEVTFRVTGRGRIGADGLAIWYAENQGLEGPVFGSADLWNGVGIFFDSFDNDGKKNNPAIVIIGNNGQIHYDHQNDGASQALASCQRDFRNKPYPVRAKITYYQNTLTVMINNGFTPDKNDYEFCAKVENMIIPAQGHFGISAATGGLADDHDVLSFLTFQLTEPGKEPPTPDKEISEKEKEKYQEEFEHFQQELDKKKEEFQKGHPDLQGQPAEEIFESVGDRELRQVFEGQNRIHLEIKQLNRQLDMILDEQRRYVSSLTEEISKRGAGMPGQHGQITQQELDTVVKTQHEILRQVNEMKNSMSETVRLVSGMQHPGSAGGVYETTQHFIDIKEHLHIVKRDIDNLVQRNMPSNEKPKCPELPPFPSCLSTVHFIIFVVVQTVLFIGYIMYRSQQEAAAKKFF

B1: KKFF (myc-tagged wild-type ERGIC-53), P49257 31-510 (natural protein)
chain: DGVGGDPAVALPHRRFEYKYSFKGPHLVQSDGTVPFWAHAGNAIPSSDQIRVAPSLKSQRGSVWTKTKAAFENWEVEVTFRVTGRGRIGADGLAIWYAENQGLEGPVFGSADLWNGVGIFFDSFDNDGKKNNPAIVIIGNNGQIHYDHQNDGASQALASCQRDFRNKPYPVRAKITYYQNTLTVMINNGFTPDKNDYEFCAKVENMIIPAQGHFGISAATGGLADDHDVLSFLTFQLTEPGKEPPTPDKEISEKEKEKYQEEFEHFQQELDKKKEEFQKGHPDLQGQPAEEIFESVGDRELRQVFEGQNRIHLEIKQLNRQLDMILDEQRRYVSSLTEEISKRGAGMPGQHGQITQQELDTVVKTQHEILRQVNEMKNSMSETVRLVSGMQHPGSAGGVYETTQHFIDIKEHLHIVKRDIDNLVQRNMPSNEKPKCPELPPFPSCLSTVHFIIFVVVQTVLFIGYIMYRSQQEAAAKKFF

Columns and labels:
[1] = target: KKAA construct (myc-tagged ERGIC-53 with its cytoplasmic tail mutated to R2A6KKAA) (human)
[2] = target: T1, KKFF (myc-tagged wild-type ERGIC-53) …; settings: remark: other sources report otherwise

stoichiometry N [1] | stoichiometry N [2] | Molecule
2 and 6 |  | KKAA construct (myc-tagged ERGIC-53 with its cytoplasmic tail mutated to R2A6KKAA) (natural protein)
 | 2 and 6 | B1
